We go through 8 sequences from the Immune Epitope Database (IEDB).

In general, Kd refers to a measure of binding affinity in units of concentration. Read a high Kd as weaker binding. By IC50 is commonly meant the midpoint of a concentration-inhibition curve. A higher IC50 goes with lower potency.

For one experiment, the target named is HLA-B*15:02. The experiment can be described thus: IEDB peptide-MHC binding, purified MHC/competitive/fluorescence; filed as Kd, often an IC50 or EC50 that approximates it; ≥ and ≤ were set here for values at or beyond the usual limits of such assays. The note with it: source organism: Vibrio cholerae 2740-80.
The target in experiment [1] is HLA-A*02:11. The description is as above. As to conditions: source organism: Encephalitozoon cuniculi GB-M1.
Experiment [2] deals with HLA-A*02:06. Described as above. The note with it: source organism: Encephalitozoon cuniculi GB-M1.
For a further experiment, the target named is HLA-A*02:03. The experiment is described as above. As to conditions: source organism: Encephalitozoon cuniculi GB-M1.
The target of experiment [3] is HLA-A*02:19. Described as above. As to conditions: source organism: Encephalitozoon cuniculi GB-M1.
Experiment [4] deals with HLA-A*69:01. The description is as above. As to conditions: source organism: Encephalitozoon cuniculi GB-M1.
For experiment [5], the target named is HLA-A*02:01. The experiment is described as above. The note with it: source organism: Encephalitozoon cuniculi GB-M1.
Experiment [6] concerns the target HLA-A*02:12. Described as above. The note with it: source organism: Encephalitozoon cuniculi GB-M1.
For another experiment, the target named is HLA-A*02:50. The description is as above.
Experiment [7] has as its target HLA-A*02:16. The description is as above. As to conditions: source organism: Encephalitozoon cuniculi GB-M1.
Experiment [8] concerns the target HLA-A*24:02. The experiment is described as above.
For experiment [9], the target named is HLA-A*02:11. The experiment in a line: IEDB peptide-MHC binding, purified MHC/direct/fluorescence; filed as Kd, often an IC50 or EC50 that approximates it; ≥ and ≤ were set here for values at or beyond the usual limits of such assays.
Experiment [10] addresses HLA-A*02:06. Described as above.
The next experiment deals with HLA-B*15:17. Described as above. As to conditions: source organism: Entamoeba histolytica HM-1:IMSS.
A further experiment concerns the target HLA-A*29:02. The description is as above. As to conditions: source organism: Entamoeba histolytica HM-1:IMSS.
The target in experiment [11] is HLA-A*02:19. Described as above.
The target of experiment [12] is HLA-A*69:01. The description is as above. As to conditions: source organism: Entamoeba histolytica HM-1:IMSS.
For the next experiment, the target named is HLA-B*51:01. Described as above. As to conditions: source organism: Entamoeba histolytica HM-1:IMSS.
A further experiment deals with HLA-A*26:01. The experiment is described as above.
Experiment [13] deals with HLA-A*02:01. The description is as above.
For experiment [14], the target named is HLA-A*02:12. The description is as above.
The next experiment addresses HLA-B*57:01. Described as above.
Experiment [15] has as its target HLA-A*02:16. Described as above.
The target in the next experiment is HLA-A*03:01. The experiment is described as above.
Another experiment concerns the target HLA-B*27:03. The experiment is described as above.
The target of another experiment is HLA-B*46:01. Described as above.
The target of a further experiment is HLA-A*24:03. Described as above. The note with it: source organism: Entamoeba histolytica HM-1:IMSS.
Another experiment concerns the target HLA-B*39:01. The description is as above.
The target in experiment [16] is HLA-A*24:02. The experiment can be described thus: IEDB peptide-MHC binding, purified MHC/competitive/fluorescence; ≥ and ≤ were set here for values at or beyond the usual limits of such assays. As to conditions: source organism: West Nile virus.
For the next experiment, the target named is HLA-B*45:06. The experiment in a line: IEDB peptide-MHC binding, purified MHC/competitive/fluorescence; filed as Kd, often an IC50 or EC50 that approximates it; ≥ and ≤ were set here for values at or beyond the usual limits of such assays. The note with it: source organism: Bacillus anthracis str. A0488.
For the next experiment, the target named is HLA-C*14:02. Described as above. The note with it: source organism: Bacillus anthracis str. A0488.
A further experiment concerns the target HLA-B*15:42. Described as above. The note with it: source organism: Bacillus anthracis str. A0488.
The target in a further experiment is HLA-B*83:01. The experiment is described as above. The note with it: source organism: Bacillus anthracis str. A0488.
Another experiment deals with HLA-A*32:15. Described as above. The note with it: source organism: Bacillus anthracis str. A0488.
The next experiment concerns the target HLA-B*15:01. The experiment in a line: IEDB peptide-MHC binding, purified MHC/direct/fluorescence; filed as Kd, often an IC50 or EC50 that approximates it; ≥ and ≤ were set here for values at or beyond the usual limits of such assays.
Another experiment concerns the target HLA-B*18:01. The experiment is described as above. The note with it: source organism: Bacillus anthracis str. Sterne.
A further experiment has as its target HLA-B*08:01. The description is as above. The note with it: source organism: Salmonella enterica subsp. enterica serovar Typhimurium str. LT2.
A further experiment deals with HLA-B*58:01. The experiment is described as above. The note with it: source organism: Salmonella enterica.
For a further experiment, the target named is HLA-B*44:02. The description is as above. As to conditions: source organism: Salmonella enterica.
Another experiment deals with HLA-B*40:01. The description is as above. As to conditions: source organism: Salmonella enterica.
A further experiment addresses HLA-B*27:05. The experiment is described as above.
In a further experiment the target is HLA-B*07:02. The description is as above. As to conditions: source organism: Salmonella enterica.
For the next experiment, the target named is HLA-B*48:01. The experiment is described as above. The note with it: source organism: Giardia lamblia ATCC 50803.
In a further experiment the target is HLA-B*73:01. The description is as above. The note with it: source organism: Giardia lamblia ATCC 50803.
Setting [17] is: source organism: Entamoeba histolytica HM-1:IMSS.
Setting [18] is: source organism: Bacillus anthracis str. Sterne.
Setting [19] is: source organism: Salmonella enterica subsp. enterica serovar Typhimurium str. LT2.
[20] abbreviates: source organism: Salmonella enterica.

The sequence GMRVLGTNY registered a dissociation constant (Kd) in the experiment with HLA-B*15:02 of 229 nM.
Take GVYGGLCLA: the Kd was not above 1 nM with HLA-A*02:11 [1]; not above 1 nM in the experiment with HLA-A*02:06 [2]; 1.6 nM with HLA-A*02:03; 486 nM with HLA-A*02:19 [3]; 423 nM with HLA-A*69:01 [4]; 2.5 nM with HLA-A*02:01 [5]. For the same sequence, the Kd was 122 nM in the experiment with HLA-A*02:12 [6], 0.3 nM in the experiment with HLA-A*02:50 (source organism: Encephalitozoon cuniculi GB-M1) and not above 1 nM with HLA-A*02:16 [7].
Take KTHIHIFSF: in the experiment with HLA-A*24:02 [8] (source organism: Influenza A virus (A/X-31(H3N2))), the Kd came out at 85.5 nM.
Regarding RQRHYFDSA, the Kd in the experiment with HLA-A*02:11 [9] (setting [17]) is not below 20 µM; with HLA-A*02:06 [10] (setting [17]), 4 nM; with HLA-B*15:17 it was not below 20 µM; with HLA-A*29:02, not below 20 µM; with HLA-A*02:19 [11] (setting [17]), not below 20000 nM; with HLA-A*69:01 [12], not below 20 µM. For the same sequence, the Kd was not below 20 µM in the experiment with HLA-B*51:01; not below 20 µM with HLA-A*26:01 (setting [17]); 7000 nM in the experiment with HLA-A*02:01 [13] (setting [17]); not below 20 µM in the experiment with HLA-A*02:12 [14] (setting [17]); not below 20 µM with HLA-B*57:01 (setting [17]); not below 20 µM in the experiment with HLA-A*02:16 [15] (setting [17]). In addition, the Kd in the experiment with HLA-A*03:01 (setting [17]), in the experiment with HLA-B*27:03 (setting [17]), with HLA-B*46:01 (setting [17]), with HLA-A*24:03 and in the experiment with HLA-B*39:01 (setting [17]) was not below 20 µM in each case.
Sequence RYLVKTESW displayed a dissociation constant Kd in the experiment with HLA-A*24:02 [8] (source organism: West Nile virus) of 0.4 nM. In addition, the IC50 with HLA-A*24:02 [16] was 264 nM.
For the sequence TTYVYTLPV, the Kd with HLA-B*45:06 is not below 5 µM; in the experiment with HLA-C*14:02, 3.5 nM; in the experiment with HLA-B*15:42, not below 5 µM; with HLA-B*83:01, not below 5 µM; with HLA-A*32:15, 370 nM; with HLA-A*26:01 (setting [18]), not below 20 µM. For the same sequence, the Kd with HLA-A*02:01 [13] (setting [18]) was 90 nM; with HLA-B*15:01 (setting [18]), not below 20 µM; with HLA-B*18:01 it was not below 20 µM; in the experiment with HLA-B*57:01 (setting [18]) it was not below 20 µM; with HLA-B*27:03 (setting [18]), not below 20 µM; with HLA-B*46:01 (setting [18]), not below 20 µM. Also, the Kd with HLA-B*39:01 (setting [18]) is not below 20 µM.
For WTLETLPRV, the Kd was 9.4 nM with HLA-A*02:50 (source organism: Salmonella enterica subsp. enterica serovar Typhi); not above 0.001 µM with HLA-A*02:11 [9] (setting [19]); not above 1 nM with HLA-A*02:06 [10] (setting [19]); 4 nM in the experiment with HLA-A*02:19 [11] (setting [19]); not below 20 µM with HLA-B*08:01; not below 20 µM in the experiment with HLA-B*58:01. In addition, the Kd with HLA-B*44:02 is not below 20 µM; in the experiment with HLA-A*02:01 [13] (setting [20]), 28.7 nM; with HLA-B*40:01 it was not below 20 µM; with HLA-B*15:01 (setting [20]) it was not below 20 µM; with HLA-A*02:12 [14] (setting [19]) it was not above 0.001 µM; in the experiment with HLA-B*27:05 (setting [20]), not below 20000 nM. For the same sequence, the Kd is not above 0.001 µM in the experiment with HLA-A*02:16 [15] (setting [19]), not below 20 µM in the experiment with HLA-B*07:02, not below 20 µM with HLA-A*03:01 (setting [20]) and not below 20 µM in the experiment with HLA-B*46:01 (setting [20]).
Consider YRYKMPVME, for which the Kd with HLA-B*48:01 is not below 20 µM; with HLA-B*73:01 it was 1620 nM; in the experiment with HLA-B*27:05 (source organism: Giardia lamblia ATCC 50803), 124 nM.
